Test system: capG phosphorylation in RAW 264 cells
Experiment: two-dimensional anti-phosphotyrosine Western blot of RAW 264 cell lysates with and without RANKL stimulation and inhibitor pretreatment
Assay type: cell-based, murine
Settings: RAW 264 cells stimulated with RANKL versus unstimulated control
Procedure: RAW 264 cells were obtained from Bristol Myers Squibb Department of Metabolic Diseases. The cells were grown in minimal essential media supplemented with 5% fetal bovine serum and 1% nonessential amino acids. For assay purposes, RAW 264 cells were starved for 5 hours in serum free media and then cultured in media containing 2% fetal bovine serum and RANK ligand. When inhibitors were used, as set forth below, the cells were pre-exposed to the inhibitor for one hour prior to RANKL stimulation. To identify RANKL specific tyrosine phosphorylation, RAW264 cells were treated with RANKL in the presence and absence of PP1 [4-Amino-5-(4-methylphenyl)-7-(t-butyl)pyrazolo[3,4-d]pyrimidine], a specific inhibitor of pp60src and wortmannin, a specific inhibitor of PI3kinase (Lakkakorpi, P. T. et al., “Phosphatidylinositol 3-kinase association with the osteoclast cytoskeleton, and its involvement in osteoclast attachment and spreading”. Exp. Cell Res. 237(2):296-306 (1997)), and cell lysates evaluated by proteomic analysis. Cell lysates were separated by two-dimensional electrophoresis in duplicate and transferred to PVDF membranes. […] 35(6):672-682 (2000), for subsequent proteomic analysis with the corresponding membrane analyzed by western blotting using anti-phosphotyrosine antibody. […] Maximal fluorescence incorporation occurred within 4 hours. […]

B1: RANKL: ligand recognized by receptor activator of NF-κB (RANK), leads to osteoclast differentiation (protein, UniProt O14788 140-317, looked up)
Tumor necrosis factor ligand …: IRAEKAMVDGSWLDLAKRSKLEAQPFAHLTINATDIPSGSHKVSLSSWYHDRGWAKISNMTFSNGKLIVNQDGFYYLYANICFRHHETSGDLATEYLQLMVYVTKTSIKIPSSHTLMKGGSTKYWSGNSEFHFYSINVGGFFKLRSGEEISIEVSNPSLLDPDQDATYFGAFKVRDID
capG phosphorylation on stimulation: causes capG 102 phosphorylation
